Patent US20120315277A1, “Compositions and Methods for the Therapy and Diagnosis of Influenza” (priority 2011, published 2012)
“And” between values parts separate entries of the source, which are not always exact repeats. Equal values may be shown once. Read-outs that look alike come from different tables or passages of the source.

T1: M2 protein of influenza A/Fort Worth/1/50 (H1N1), expressed on 293 cells (influenza A virus A/Fort Worth/1/50 …)
T1 chain: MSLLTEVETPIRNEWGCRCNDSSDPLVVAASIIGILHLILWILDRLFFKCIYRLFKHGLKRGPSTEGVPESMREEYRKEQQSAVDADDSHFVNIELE

B1: 8I10 (antibody, V domains shown)
VH: QVQLQESGPGLVKPSETLSLTCTVSGSSISNYYWSWIRQSPGKGLEWIGFIYYGGNTKYNPSLKSRVTISQDTSKSQVSLTMSSVTAAESAVYFCARASCSGGYCILDYWGQGTLVTVS
VL: DIQMTQSPSSLSASVGDRVTITCRASQNIYKYLNWYQQRPGKAPKGLISAASGLQSGVPSRFSGSGSGTDFTLTITSLQPEDFATYYCQQSYSPPLTFGGGTRVEIK
B2: 23K12 (antibody, V domains shown)
VH: EVQLVESGGGLVQPGGSLRISCAASGFTVSSNYMSWVRQAPGKGLEWVSVIYSGGSTYYADSVKGRFSFSRDNSKNTVFLQMNSLRAEDTAVYYCARCLSRMRGYGLDVWGQGTTVTVS
VL: DIQMTQSPSSLSASVGDRVTITCRTSQSISSYLNWYQQKPGKAPKLLIYAASSLQSGVPSRFSGSGSGTDFTLTISGLQPEDFATYYCQQSYSMPAFGQGTKLEIK

Key:
[1] = test system: H5N1 (VN1203/04); design: key: +++: many; ++: moderate; +: few; ±: rare; −: negative; conditions: mouse, in vivo
[2] = test system: H5N1 (VN1203/04); design: key to Liver: viral antigens: +++: many; ++: moderate; +: few; ±: rare; −: negative; key to Liver: pathological changes / Lung: pathological changes / Brain: pathological changes: +++: severe; ++: moderate; +: mild; ±: scant; −: not observed; conditions: mouse, in vivo
[3] = test system: H5N1 (VN1203/04); design: key: +++: severe; ++: moderate; +: mild; ±: scant; −: not observed; conditions: mouse, in vivo
[4] = test system: H1N1 (A/PR/8/34); assay: H1N1 challenge VI at 5LD50 (Example 18); format: in vivo, mouse (balb/c); conditions: 5MLD50; antibody 20 mg/kg days 1, 3, 5; oseltamivir 10 mg/kg four hours post-infection
[5] = test system: H5N1 (A/Vietnam/1203/04, VN1203); design: species or system mouse (balb/c); conditions: mouse, in vivo
[6] = test system: H1N1 (A/Solomon Islands/06); assay: H1N1 challenge IV at 10LD50 (Example 16); format: in vivo, mouse (balb/c); conditions: 10MLD50; antibody on days 3 and 5
[7] = test system: H5N1 (VN1203/04); conditions: mouse, in vivo
[8] = test system: H1N1 (A/NWS/33); assay: H1N1 challenge V at 2 or 4 LD50 (Example 17); format: in vivo, mouse (balb/c); conditions: antibody 20 mg/kg, oseltamivir 10 mg/kg bid
[9] = test system: H5N1 (A/Vietnam/1203/04, VN1203); design: species or system mouse (balb/c); conditions: mouse, in vivo; remark: listed apart in the source
[10] = test system: H5N1 (A/Vietnam/1203/04, VN1203); design: species or system mouse (balb/c); conditions: mouse, in vivo; remark: listed apart in the source
[11] = test system: H5N1 (A/Vietnam/1203/04, VN1203); design: species or system mouse (balb/c); conditions: mouse, in vivo; remark: listed apart in the source
[12] = biological target: M2 protein of influenza A/Puerto Rico/8/34 (H1N1) on cells (influenza A virus A/Puerto Rico/8/34 …, UniProt P06821 1-97); assay: FACS, MDCK cells infected with A/Puerto Rico/8/34
[13] = biological target: truncated M2 peptide SEQ ID NO 307; assay: peptide ELISA, 5 µg/mL
[14] = biological target: truncated M2 peptide SEQ ID NO 305; assay: peptide ELISA, 5 µg/mL
[15] = biological target: truncated M2 peptide SEQ ID NO 303; assay: peptide ELISA, 5 µg/mL
[16] = biological target: truncated M2 peptide SEQ ID NO 271; assay: peptide ELISA, 5 µg/mL
[17] = biological target: truncated M2 peptide SEQ ID NO 299; assay: peptide ELISA, 5 µg/mL
[18] = biological target: truncated M2 peptide SEQ ID NO 313; assay: peptide ELISA, 5 µg/mL
[19] = biological target: truncated M2 peptide SEQ ID NO 316; assay: peptide ELISA, 5 µg/mL
[20] = biological target: truncated M2 peptide SEQ ID NO 308; assay: peptide ELISA, 5 µg/mL
[21] = biological target: truncated M2 peptide SEQ ID NO 301; assay: peptide ELISA, 5 µg/mL
[22] = biological target: truncated M2 peptide SEQ ID NO 310; assay: peptide ELISA, 5 µg/mL
[23] = biological target: truncated M2 peptide SEQ ID NO 300; assay: peptide ELISA, 5 µg/mL
[24] = biological target: truncated M2 peptide SEQ ID NO 306; assay: peptide ELISA, 5 µg/mL
[25] = biological target: M2 peptide SEQ ID NO 273; assay: peptide ELISA, 5 µg/mL
[26] = biological target: truncated M2 peptide SEQ ID NO 315; assay: peptide ELISA, 5 µg/mL
[27] = biological target: truncated M2 peptide SEQ ID NO 304; assay: peptide ELISA, 5 µg/mL
[28] = biological target: truncated M2 peptide SEQ ID NO 314; assay: peptide ELISA, 5 µg/mL
[29] = biological target: truncated M2 peptide SEQ ID NO 311; assay: peptide ELISA, 5 µg/mL
[30] = biological target: truncated M2 peptide SEQ ID NO 302; assay: peptide ELISA, 5 µg/mL
[31] = biological target: truncated M2 peptide SEQ ID NO 309; assay: peptide ELISA, 5 µg/mL
[32] = biological target: truncated M2 peptide SEQ ID NO 298; assay: peptide ELISA, 5 µg/mL
[33] = biological target: truncated M2 peptide SEQ ID NO 312; assay: peptide ELISA, 5 µg/mL
[34] = biological target: T1, M2 protein of influenza A/Fort …; assay: cell staining images, 293-HEK cells stably expressing M2
[35] = biological target: T2, M2 protein on influenza A/Puerto Rico/8/34 (H1N1) virus particles (influenza A virus A/Puerto Rico/8/34 …, UniProt P06821 1-97); assay: ELISA on purified A/Puerto Rico/8/34 virus
[36] = biological target: T2, M2 protein on influenza A/Puerto …; assay: ELISA on A/PR/8 virus, normalised to 8i10 at 10 µg/ml [D00002 FIG. 2B]

Molecule | EC50 (read off the curve) [12] [µg/mL] | ELISA A450 [14] | ELISA A450 [15] | ELISA A450 [16] | ELISA A450 [18] | ELISA A450 [19] | ELISA A450 [21] | ELISA A450 [22] | ELISA A450 [23] | ELISA A450 [24] | ELISA A450 [26] | ELISA A450 [27] | ELISA A450 [28] | ELISA A450 [29] | ELISA A450 [30] | ELISA A450 [33] | binding result [34] | EC50 [35] [µg/mL] | EC50 (read off the curve) [36] [µg/mL] | further results
CCOC(=O)C1=C[C@@H](OC(CC)CC)[C@H](NC(C)=O)[C@@H](N)C1 [Osel] | – | – | – | – | – | – | – | – | – | – | – | – | – | – | – | – | – | – | – | Brain: viral antigens [1]: −/−; Lung: viral antigens [1]: +/+; Brain: pathological changes [2]: −/− and ++/++ and +/++; Liver: pathological changes [2]: −/−; Liver: viral antigens [2]: −/−; Lung: pathological changes [2]: +/+ and +/++ and ++/++; Brain: viral antigens [3]: ++/++ and +/++; Lung: viral antigens [3]: +/++ and ++/++
CCOC(=O)C1=C[C@@H](OC(CC)CC)[C@H](NC(C)=O)[C@@H](N)C1 [oseltamivir] | – | – | – | – | – | – | – | – | – | – | – | – | – | – | – | – | – | – | – | survival rate at day 21 [4]: 80%; protection from death (in words) [5]: completely protected mice; protection from weight loss (in words) [5]: completely protected mice; survival rate at day 15 [5]: 60%; weight remaining (in words) [5]: retained more weight; mice surviving until day 21 [6]: about 10%; survival rate at day 14 [7]: 90% and 50%; survival rate at day 21 ([8]; 2MLD50): 90%; survival rate at day 21 ([8]; 4MLD50): 100%; survival rate at day 14 [9]: 20%; survival (in words) [10]: extinction of the population prior to the end of the therapy; survival rate at day 14 [11]: 20%
B1 | ~0.1 | 0.14 | 0.12 | 0.12 | 0.13 | 0.1 | 0.11 | 0.11 | 0.09 | 0.14 | 0.1 | 0.14 | 0.1 | 0.11 | 0.13 | 0.1 | binds | ~0.1 | ~0.04 | ELISA A450 [13]: 0.26; ELISA A450 [17]: 0.09; ELISA A450 [20]: 0.29; ELISA A450 [25]: 0.11; ELISA A450 [31]: 0.12; ELISA A450 [32]: 0.09
B2 | ~0.2 | 0.34 | 0.34 | 0.3 | 0.3 | 0.2 | 0.34 | 0.24 | 0.2 | 0.39 | 0.2 | 0.36 | 0.24 | 0.25 | 0.35 | 0.24 | binds | ~0.1 | ~0.06 | –
